According to article PMC8659110, “Preliminary Study of New Gallium-68 Radiolabeled Peptide Targeting NRP-1 to Detect Brain Metastases by Positron Emission Tomography” (Molecules, 2021):
Primed or numbered codes have the meaning given here. Where no end group is shown, it is not given here. Cy5 = Cy5 fluorophore (fluorescent dye); NODAGA′ = chelator

Key:
[1] = target: T1, NRP-1 recombinant chimeric protein ( (recombinant human/rat NRP-1 …, UniProt O14786 22-856)); test: ELISA; competitive binding assay: NRP-1 recombinant chimeric protein coated on Maxisorp microplates; biotinylated VEGF-165 with heparin, with or without increasing concentrations of compounds; 2 h at room temperature; bound b-VEGF-165 detected with streptavidin-HRP, OD 450 nm; IC50 by one-site fit log-IC50; settings: both partners purified
T1 construct: 'Chimeric' probably means the supplier's Fc chimera; also called recombinant NRP-1 protein; the receptor; source: bought: Bio-techne
T1 sequence (looked up): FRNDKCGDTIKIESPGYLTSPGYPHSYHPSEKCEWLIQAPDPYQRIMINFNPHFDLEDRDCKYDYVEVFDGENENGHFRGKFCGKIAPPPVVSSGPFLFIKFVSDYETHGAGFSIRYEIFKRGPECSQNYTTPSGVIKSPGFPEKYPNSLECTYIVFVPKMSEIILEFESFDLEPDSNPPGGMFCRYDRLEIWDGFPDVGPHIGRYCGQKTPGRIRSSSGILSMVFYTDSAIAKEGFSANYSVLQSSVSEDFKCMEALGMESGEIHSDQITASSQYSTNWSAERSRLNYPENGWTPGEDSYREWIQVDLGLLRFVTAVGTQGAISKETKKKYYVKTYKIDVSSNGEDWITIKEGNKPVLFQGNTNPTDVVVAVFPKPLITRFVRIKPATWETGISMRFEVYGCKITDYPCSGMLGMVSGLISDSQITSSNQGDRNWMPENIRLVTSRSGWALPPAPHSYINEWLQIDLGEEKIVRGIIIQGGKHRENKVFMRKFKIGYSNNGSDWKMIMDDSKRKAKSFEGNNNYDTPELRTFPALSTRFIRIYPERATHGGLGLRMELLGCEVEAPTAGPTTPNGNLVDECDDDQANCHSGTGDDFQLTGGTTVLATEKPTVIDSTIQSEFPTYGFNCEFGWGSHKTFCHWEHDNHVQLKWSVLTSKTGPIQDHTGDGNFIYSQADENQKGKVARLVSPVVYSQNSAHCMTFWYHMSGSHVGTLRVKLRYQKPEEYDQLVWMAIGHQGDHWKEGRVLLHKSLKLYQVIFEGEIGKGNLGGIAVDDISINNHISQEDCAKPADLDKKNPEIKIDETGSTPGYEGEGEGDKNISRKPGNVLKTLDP

[2] = target: T2, recombinant rat NRP-1 protein (rat, UniProt Q9QWJ9 22-855); test: SPR; Biacore T200, 25 °C; rat NRP-1 covalently immobilised on CM5 chip (10,000 RU), IgG1 reference surface (4000 RU); PBS with 0.05% P20, pH 7.4; compounds 0.60-10 µM (scrambled peptides 10 and 30 µM, VEGF 12.5-400 nM) at 30 µL/min for 300 s; equilibrium response fitted to a 1:1 model; mean of two experiments; settings: both partners purified
T2 construct: neuropilin-1 (NRP-1), rat, recombinant; printed MW 119 kDa; also called neuropilin-1; source: bought: Bio-techne
T2 sequence (looked up): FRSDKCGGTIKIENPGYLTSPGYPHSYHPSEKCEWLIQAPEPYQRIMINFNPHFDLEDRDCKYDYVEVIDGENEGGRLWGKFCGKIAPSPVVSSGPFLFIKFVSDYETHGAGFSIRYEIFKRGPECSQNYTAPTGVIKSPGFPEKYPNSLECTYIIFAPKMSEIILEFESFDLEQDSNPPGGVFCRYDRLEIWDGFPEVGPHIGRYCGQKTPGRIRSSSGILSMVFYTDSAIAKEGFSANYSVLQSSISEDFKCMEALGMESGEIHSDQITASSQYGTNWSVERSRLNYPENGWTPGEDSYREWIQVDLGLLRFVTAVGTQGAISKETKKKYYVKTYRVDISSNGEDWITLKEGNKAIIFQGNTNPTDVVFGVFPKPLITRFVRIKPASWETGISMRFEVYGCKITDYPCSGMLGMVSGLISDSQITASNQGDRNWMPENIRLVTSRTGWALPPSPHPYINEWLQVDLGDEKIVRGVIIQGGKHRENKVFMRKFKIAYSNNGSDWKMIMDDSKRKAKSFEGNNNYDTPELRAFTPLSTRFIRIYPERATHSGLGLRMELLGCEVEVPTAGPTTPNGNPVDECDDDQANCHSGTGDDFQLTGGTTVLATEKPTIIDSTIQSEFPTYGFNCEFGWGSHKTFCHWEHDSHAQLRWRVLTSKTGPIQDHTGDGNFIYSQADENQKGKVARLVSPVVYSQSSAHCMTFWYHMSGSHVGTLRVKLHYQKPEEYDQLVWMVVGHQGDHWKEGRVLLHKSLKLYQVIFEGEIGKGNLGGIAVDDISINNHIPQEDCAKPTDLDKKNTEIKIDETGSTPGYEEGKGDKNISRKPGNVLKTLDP

B1: ^natGa-NODAGA-K(Cy5)RPKPD (peptide)
peptide: {NODAGA′}-K(Cy5)RPKPD
modifications: also: NODAGA complexed with natGa
notes: scramble peptide KRPKPD with ^natGa-NODAGA on the N-terminal amine and Cy5 on the side chain of the first lysine; also called ^natGa-NODAGA-K(Cy5)scramble; source: synthetic peptide (Fmoc/tBu/Dde solid phase; complexed with ^natGa, purified by preparative HPLC)
B1 was tested, and the IC50 [1] was 177 µM.

B2: K(Cy5)DKPPR (peptide)
peptide: K(Cy5)DKPPR
notes: KDKPPR with Cy5 on the side chain of the first lysine; source: synthetic peptide (solid phase with Fmoc-Lys(Cy5)-OH, purified by preparative HPLC)
B2 showed a Kd [2] of 5 µM.

B3: ^natGa-NODAGA-K(Cy5)DKPPR (peptide)
peptide: {NODAGA′}-K(Cy5)DKPPR
modifications: also: NODAGA complexed with natGa
notes: KDKPPR with ^natGa-NODAGA on the N-terminal amine and Cy5 on the side chain of the first lysine; source: synthetic peptide (Fmoc/tBu/Dde solid phase; complexed with ^natGa(NO3)3, purified by preparative HPLC)
Work on B3 yielded a Kd [2] of 4 µM.

Binder H-KRPKPD-OH [KRPKPD scramble peptide] has an IC50 [1] of 300 µM.

B4: KDKPPR peptide (peptide)
peptide: KDKPPR
notes: also called KDKPPR free peptide; KDKPPR alone; source: synthetic peptide (Fmoc/tBu solid phase on Fmoc-Arg(Pbf)-Wang resin, precipitated in cold diethyl ether)
B4 gave a Kd [2] of 7 µM.
